The text below walks through data of paper PMC13280853.

The target in test [1] is porcine pancreatic α-amylase (porcine) (UniProt P00690).
Test [2] deals with human salivary α-amylase (human) (UniProt P0DUB6).
Test [3] deals with Tenebrio molitor α-amylase (Tenebrio molitor) (UniProt P56634).
UniProt P56634, sequence (P56634 whole entry): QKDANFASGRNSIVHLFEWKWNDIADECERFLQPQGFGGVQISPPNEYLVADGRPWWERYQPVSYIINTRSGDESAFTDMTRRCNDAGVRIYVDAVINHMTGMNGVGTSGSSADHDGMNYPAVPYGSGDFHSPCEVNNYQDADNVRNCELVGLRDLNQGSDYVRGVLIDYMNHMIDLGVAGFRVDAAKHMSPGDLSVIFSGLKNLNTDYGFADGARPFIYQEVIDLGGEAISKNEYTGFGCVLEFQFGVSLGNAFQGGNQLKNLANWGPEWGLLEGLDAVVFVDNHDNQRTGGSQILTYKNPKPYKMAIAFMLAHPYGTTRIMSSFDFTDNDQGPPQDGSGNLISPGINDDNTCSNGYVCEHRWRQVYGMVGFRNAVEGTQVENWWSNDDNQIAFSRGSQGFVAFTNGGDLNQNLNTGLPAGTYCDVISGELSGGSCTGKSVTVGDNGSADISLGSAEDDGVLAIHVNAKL

UniProt P0DUB6, sequence (P0DUB6 16-511): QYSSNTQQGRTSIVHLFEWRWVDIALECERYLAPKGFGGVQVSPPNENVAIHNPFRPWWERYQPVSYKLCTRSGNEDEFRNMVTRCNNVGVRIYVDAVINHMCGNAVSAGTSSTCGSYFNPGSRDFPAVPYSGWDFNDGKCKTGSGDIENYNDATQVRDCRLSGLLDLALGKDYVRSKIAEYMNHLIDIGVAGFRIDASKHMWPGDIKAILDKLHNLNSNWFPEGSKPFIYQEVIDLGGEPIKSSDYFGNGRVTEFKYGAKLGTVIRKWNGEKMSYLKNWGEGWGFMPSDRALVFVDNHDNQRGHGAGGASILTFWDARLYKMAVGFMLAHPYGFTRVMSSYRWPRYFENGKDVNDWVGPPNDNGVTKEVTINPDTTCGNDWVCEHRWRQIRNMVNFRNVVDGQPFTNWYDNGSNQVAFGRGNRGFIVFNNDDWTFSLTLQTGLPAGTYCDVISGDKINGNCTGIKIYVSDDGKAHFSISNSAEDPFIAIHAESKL
UniProt P00690, sequence (P00690 16-511): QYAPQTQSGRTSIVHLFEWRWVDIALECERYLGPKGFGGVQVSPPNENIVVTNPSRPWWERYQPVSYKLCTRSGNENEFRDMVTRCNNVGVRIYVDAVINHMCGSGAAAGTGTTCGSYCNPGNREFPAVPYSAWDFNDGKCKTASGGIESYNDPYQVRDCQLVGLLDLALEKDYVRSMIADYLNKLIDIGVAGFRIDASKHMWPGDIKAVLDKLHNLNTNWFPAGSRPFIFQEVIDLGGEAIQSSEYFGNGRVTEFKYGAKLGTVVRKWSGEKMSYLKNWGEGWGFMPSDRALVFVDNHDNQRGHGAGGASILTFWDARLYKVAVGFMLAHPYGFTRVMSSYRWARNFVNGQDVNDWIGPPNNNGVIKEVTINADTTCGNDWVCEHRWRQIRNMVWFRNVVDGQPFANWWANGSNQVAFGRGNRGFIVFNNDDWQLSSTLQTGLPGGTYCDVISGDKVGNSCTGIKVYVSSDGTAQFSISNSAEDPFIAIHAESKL

Substance “LTP-rich fraction P10 from Capsicum chinense seeds” came in with an inhibition of porcine pancreatic α-amylase activity (starch hydrolysis, DNS reagent; fraction at 50 μg/mL, 37 °C, 30 min; relative to 5 mM EDTA as 100% inhibition) in test [1] of 89%. The substance further returned an inhibition of human salivary α-amylase activity (starch hydrolysis, DNS reagent; fraction at 50 μg/mL, 37 °C, 30 min; relative to 5 mM EDTA as 100% inhibition) in test [2] of 93%. Moreover, the inhibition of T. molitor α-amylase activity (starch hydrolysis, DNS reagent; fraction at 50 μg/mL, 37 °C, 30 min; relative to 5 mM EDTA as 100% inhibition) in test [3] came out at 98%.

“subfraction R1 of fraction P10 (lipid transfer protein, Capsicum chinense seeds)”: the inhibition of porcine pancreatic α-amylase activity (starch hydrolysis, DNS reagent; fraction at 50 μg/mL, 37 °C, 30 min; relative to 5 mM EDTA as 100% inhibition) in test [1] was 84%. The inhibition of human salivary α-amylase activity (starch hydrolysis, DNS reagent; fraction at 50 μg/mL, 37 °C, 30 min; relative to 5 mM EDTA as 100% inhibition) in test [2] was found to be 91%. The inhibition of T. molitor α-amylase activity (starch hydrolysis, DNS reagent; fraction at 50 μg/mL, 37 °C, 30 min; relative to 5 mM EDTA as 100% inhibition) in test [3] was determined as 55%.

Regarding “subfraction R2 of fraction P10 (lipid transfer protein, Capsicum chinense seeds)”, in test [1], the inhibition of porcine pancreatic α-amylase activity (starch hydrolysis, DNS reagent; fraction at 50 μg/mL, 37 °C, 30 min; relative to 5 mM EDTA as 100% inhibition) is 81%. This substance also registered an inhibition of human salivary α-amylase activity (starch hydrolysis, DNS reagent; fraction at 50 μg/mL, 37 °C, 30 min; relative to 5 mM EDTA as 100% inhibition) in test [2] of 85%. Also, the inhibition of T. molitor α-amylase activity (starch hydrolysis, DNS reagent; fraction at 50 μg/mL, 37 °C, 30 min; relative to 5 mM EDTA as 100% inhibition) in test [3] came to 72%.

With “subfraction R3 of fraction P10 (lipid transfer protein, Capsicum chinense seeds)”, the inhibition of porcine pancreatic α-amylase activity (starch hydrolysis, DNS reagent; fraction at 50 μg/mL, 37 °C, 30 min; relative to 5 mM EDTA as 100% inhibition) in test [1] turned out to be 80%. For the same substance, in test [2], the inhibition of human salivary α-amylase activity (starch hydrolysis, DNS reagent; fraction at 50 μg/mL, 37 °C, 30 min; relative to 5 mM EDTA as 100% inhibition) was found to be 92%. The substance also showed an inhibition of T. molitor α-amylase activity (starch hydrolysis, DNS reagent; fraction at 50 μg/mL, 37 °C, 30 min; relative to 5 mM EDTA as 100% inhibition) in test [3] of 93%.
